US7183387 (Genentech, dated 2007)

B1: anti-IgE E27 IgG1 variant E333(352)Q (antibody)
heavy: not shown
light: DIQLTQSPSSLSASVGDRVTITCRASKPVDGEGDSYLNWYQQKPGKAPKLLIYAASYLESGVPSRFSGSGSGTDFTLTISSLQPEDFATYYCQQSHEDPYTFGQGTKVEIKRTVAAPSVFIFPPSDEQLKSGTASVVCLLNNFYPREAKVQWKVDNALQSGNSQESVTEQDSKDSTYSLSSTLTLSKADYEKHKVYACEVTHQGLSSPVTKSFNRGEC
notes: Fc variant of E27
B2: anti-IgE E27 IgG1 variant K334(353)N (antibody)
heavy: not shown
light: B1 light
notes: Fc variant of E27
B3: anti-IgE E27 IgG1 variant S298(317)L (antibody)
heavy: not shown
light: B1 light
notes: Fc variant of E27
B4: anti-IgE E27 IgG1 variant K290(307)R (antibody)
heavy: not shown
light: B1 light
notes: Fc variant of E27; also called IG2 78
B5: anti-IgE E27 IgG1 variant K334(353)Y (antibody)
heavy: not shown
light: B1 light
notes: Fc variant of E27
B6: anti-IgE E27 IgG1 variant S298(317)N (antibody)
heavy: not shown
light: B1 light
notes: Fc variant of E27; also called IG2 72; Ser298Asn
B7: anti-IgE E27 IgG1 variant K334(353)S (antibody)
heavy: not shown
light: B1 light
notes: Fc variant of E27
B8: anti-IgE E27 IgG1 variant K290(307)A (antibody)
heavy: not shown
light: B1 light
notes: Fc variant of E27; also called IG2 30; G30
B9: anti-IgE E27 IgG1 variant K334(353)G (antibody)
heavy: not shown
light: B1 light
notes: Fc variant of E27; also called IG2 179
B10: anti-IgE E27 IgG1 variant K334(353)V (antibody)
heavy: not shown
light: B1 light
notes: Fc variant of E27; also called IG2 220
B11: anti-IgE E27 IgG1 variant K334(353)L (antibody)
heavy: not shown
light: B1 light
notes: Fc variant of E27; also called IG2 221
B12: anti-IgE E27 IgG1 variant K334(353)Q (antibody)
heavy: not shown
light: B1 light
notes: Fc variant of E27
B13: anti-IgE E27 IgG1 variant T256(269)A (antibody)
heavy: not shown
light: B1 light
notes: Fc variant of E27; also called IG2 11; Thr256Ala
B14: anti-IgE E27 IgG1 variant T256(269)N (antibody)
heavy: not shown
light: B1 light
notes: Fc variant of E27
B15: anti-IgE E27 IgG1 variant K290(307)Q (antibody)
heavy: not shown
light: B1 light
notes: Fc variant of E27; also called IG2 73
B16: anti-IgE E27 IgG1 variant S298(317)T (antibody)
heavy: not shown
light: B1 light
notes: Fc variant of E27; also called IG2 71; Ser298Thr
B17: anti-IgE E27 IgG1 variant K290(307)E (antibody)
heavy: not shown
light: B1 light
notes: Fc variant of E27; also called IG2 77
B18: anti-IgE E27 IgG1 variant S298(317)G (antibody)
heavy: not shown
light: B1 light
notes: Fc variant of E27; also called IG2 70
B19: anti-IgE E27 IgG1 variant K334(353)H (antibody)
heavy: not shown
light: B1 light
notes: Fc variant of E27
B20: anti-IgE E27 IgG1 variant K334(353)M (antibody)
heavy: not shown
light: B1 light
notes: Fc variant of E27; also called IG2 190
B21: anti-IgE E27 IgG1 variant S298(317)A (antibody)
heavy: not shown
light: B1 light
notes: Fc variant of E27; also called IG2 36; G36
B22: anti-IgE E27 IgG1 variant K334(353)W (antibody)
heavy: not shown
light: B1 light
notes: Fc variant of E27
B23: anti-IgE E27 IgG1 variant E333(352)R (antibody)
heavy: not shown
light: B1 light
notes: Fc variant of E27
B24: anti-IgE E27 IgG1 variant K290(307)S (antibody)
heavy: not shown
light: B1 light
notes: Fc variant of E27; also called IG2 75
B25: anti-IgE E27 IgG1 variant K334(353)E (antibody)
heavy: not shown
light: B1 light
notes: Fc variant of E27
B26: anti-IgE E27 IgG1 variant K290(307)G (antibody)
heavy: not shown
light: B1 light
notes: Fc variant of E27; also called IG2 177
B27: anti-IgE E27 IgG1 variant P331(350)A (antibody)
heavy: not shown
light: B1 light
notes: Fc variant of E27; also called IG2 65; Pro331Ala

Target: T1, human FcγRIIA-R131 α subunit extracellular domain-His6-GST fusion (human, UniProt P12318 34-217)
T1 construct: ECD-6His-GST fusion made in 293 cells; also called FcγRIIA-Arg131; not shown: glutathione S transferase (GST)
T1 sequence: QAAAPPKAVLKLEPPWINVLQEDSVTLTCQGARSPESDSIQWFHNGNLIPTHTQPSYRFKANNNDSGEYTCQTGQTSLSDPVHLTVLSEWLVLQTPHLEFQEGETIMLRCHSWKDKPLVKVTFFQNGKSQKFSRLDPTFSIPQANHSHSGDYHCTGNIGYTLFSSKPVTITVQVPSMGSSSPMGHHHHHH
Test: ELISA, IgG complex, receptor coated

| Binder | ratio of binding, variant/native IgG1 (mean) [ratio] |
| --- | --- |
| B1 | 0.7 |
| B2 | 1.16 |
| B3 | 1.14 |
| B4 | 1.05 |
| B5 | 1.08 |
| B6 | 0.08 |
| B7 | 1.01 |
| B8 | 1.29 |
| B9 | 0.76 |
| B10 | 1.13 |
| B11 | 1.05 |
| B12 | 1.08 |
| B13 | 1.41 |
| B14 | 1.03 |
| B15 | 1.17 |
| B16 | 0.41 |
| B17 | 1.1 |
| B18 | 0.87 |
| B19 | 1.09 |
| B20 | 1.06 |
| B21 | 0.4 |
| B22 | 0.94 |
| B23 | 0.75 |
| B24 | 1.27 |
| B25 | 0.74 |
| B26 | 1.07 |
| B27 | 1.29 |

Target: T2, human FcγRIIIA-F158 α subunit extracellular domain-His6-GST fusion (human, UniProt P08637 17-208)
T2 construct: ECD-6His-GST fusion made in 293 cells; also called FcγRIIIA-Phe158; not shown: glutathione S transferase (GST)
T2 sequence (P08637 other isoform, or with tags, fused parts or gaps, form in doubt): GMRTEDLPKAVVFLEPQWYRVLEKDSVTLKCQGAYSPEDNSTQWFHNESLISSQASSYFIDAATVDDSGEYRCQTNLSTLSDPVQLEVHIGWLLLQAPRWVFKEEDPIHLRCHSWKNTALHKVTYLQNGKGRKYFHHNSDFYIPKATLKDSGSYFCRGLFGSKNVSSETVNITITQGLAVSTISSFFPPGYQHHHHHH
Test: ELISA, IgG complex, receptor coated

| Binder | ratio of binding, variant/native IgG1 (mean) [ratio] |
| --- | --- |
| B1 | 1.1 |
| B2 | 1.15 |
| B3 | 0.34 |
| B4 | 1.08 |
| B5 | 1.31 |
| B6 | 0.06 |
| B7 | 1.19 |
| B8 | 1.28 |
| B9 | 0.88 |
| B10 | 1.34 |
| B11 | 1.38 |
| B12 | 1.31 |
| B13 | 1.32 |
| B14 | 1.13 |
| B15 | 1.4 |
| B16 | 0.89 |
| B17 | 1.3 |
| B18 | 0.46 |
| B19 | 1.26 |
| B20 | 1.35 |
| B21 | 1.3 |
| B22 | 1.07 |
| B23 | 0.84 |
| B24 | 1.26 |
| B25 | 1.3 |
| B26 | 1.23 |
| B27 | 1.03 |

Target: T3, human FcγRIIIA-V158 α subunit extracellular domain-His6-GST fusion (human, UniProt P08637 17-208)
T3 construct: ECD-6His-GST fusion made in 293 cells; also called FcγRIIIA-Val158; not shown: glutathione S transferase (GST)
T3 sequence (P08637 other isoform, or with tags, fused parts or gaps, form in doubt): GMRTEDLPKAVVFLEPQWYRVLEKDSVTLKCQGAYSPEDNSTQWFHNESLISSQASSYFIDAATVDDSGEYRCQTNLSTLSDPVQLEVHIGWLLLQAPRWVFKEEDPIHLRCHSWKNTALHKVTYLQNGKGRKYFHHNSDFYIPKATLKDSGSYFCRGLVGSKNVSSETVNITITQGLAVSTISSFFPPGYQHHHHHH
Test: ELISA, IgG complex, receptor coated

| Binder | ratio of binding, variant/native IgG1 (mean) [ratio] |
| --- | --- |
| B1 | 1.05 |
| B2 | 1.19 |
| B3 | 0.83 |
| B4 | 1.07 |
| B5 | 0.98 |
| B6 | 0.66 |
| B7 | 1.25 |
| B8 | 1.12 |
| B9 | 0.94 |
| B10 | 1 |
| B11 | 0.96 |
| B12 | 1.27 |
| B13 | 0.97 |
| B14 | 0.95 |
| B15 | 1.02 |
| B16 | 0.96 |
| B17 | 0.98 |
| B18 | 0.88 |
| B19 | 0.97 |
| B20 | 0.99 |
| B21 | 1.02 |
| B22 | 0.96 |
| B23 | 0.92 |
| B24 | 1.05 |
| B25 | 1.17 |
| B26 | 1.11 |
| B27 | 0.96 |

Target: T3, human FcγRIIIA-V158 α subunit …
Test: ELISA, IgG monomer, receptor coated

| Binder | ratio of binding, variant/native IgG1 (mean) [ratio] |
| --- | --- |
| B1 | 1 |
| B2 | 1.7 |
| B3 | 0.67 |
| B4 | 1.24 |
| B5 | 1.72 |
| B6 | 0.17 |
| B7 | 1.82 |
| B8 | 1.13 |
| B9 | 1.28 |
| B10 | 2.89 |
| B11 | 3.59 |
| B12 | 1.92 |
| B13 | 1.2 |
| B14 | 0.88 |
| B15 | 1.3 |
| B16 | 0.75 |
| B17 | 1.5 |
| B18 | 1.88 |
| B19 | 2.06 |
| B20 | 2.08 |
| B21 | 1.96 |
| B22 | 1.53 |
| B23 | 0.83 |
| B24 | 1.62 |
| B25 | 2.75 |
| B26 | 2.29 |
| B27 | 0.78 |
